Starred links: 1 amine or outer side, 2 acyl side, 3 side chain; linkers in the order of their positions; H or OH if unused. Non-standard residues stand in square brackets, D forms with d. *: point of attachment. Oic = O=C(O)[C@@H]1C[C@@H]2CCCC[C@@H]2N1; dPhe(4-Cl) = N[C@H](Cc1ccc(Cl)cc1)C(=O)O; Phe(4-I) = N[C@@H](Cc1ccc(I)cc1)C(=O)O; γGlu = O=C(O)[C@H](CCC(=O)[*:2])N[*:1]; NMeR = CN[C@@H](CCCNC(=N)N)C(=O)O; Tridecanoyl = CCCCCCCCCCCCC(=O)*; hArg = N=C(N)NCCCC[C@H](N)C(=O)O; Cha = N[C@@H](CC1CCCCC1)C(=O)O; NMeL = CN[C@@H](CC(C)C)C(=O)O; Nle = CCCC[C@H](N)C(=O)O; AEEA = NCCOCCOCC(=O)O
Tests used:
human APJ receptor = target: T1, human APJ receptor (human, UniProt P35414 1-380); test: cell-based or functional assay
T1 sequence (looked up): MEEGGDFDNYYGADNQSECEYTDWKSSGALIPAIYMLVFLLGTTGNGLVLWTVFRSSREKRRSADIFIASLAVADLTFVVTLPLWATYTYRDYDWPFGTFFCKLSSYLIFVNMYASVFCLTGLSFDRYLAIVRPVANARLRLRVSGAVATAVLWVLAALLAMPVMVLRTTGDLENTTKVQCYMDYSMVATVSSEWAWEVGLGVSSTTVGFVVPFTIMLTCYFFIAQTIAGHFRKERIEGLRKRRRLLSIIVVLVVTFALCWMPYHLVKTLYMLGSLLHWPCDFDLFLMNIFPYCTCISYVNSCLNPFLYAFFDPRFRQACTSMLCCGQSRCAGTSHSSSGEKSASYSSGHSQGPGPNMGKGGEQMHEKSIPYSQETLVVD

rat APJ receptor = target: T2, rat APJ receptor (rat, UniProt Q9JHG3 1-377); test: cell-based or functional assay
T2 sequence (looked up): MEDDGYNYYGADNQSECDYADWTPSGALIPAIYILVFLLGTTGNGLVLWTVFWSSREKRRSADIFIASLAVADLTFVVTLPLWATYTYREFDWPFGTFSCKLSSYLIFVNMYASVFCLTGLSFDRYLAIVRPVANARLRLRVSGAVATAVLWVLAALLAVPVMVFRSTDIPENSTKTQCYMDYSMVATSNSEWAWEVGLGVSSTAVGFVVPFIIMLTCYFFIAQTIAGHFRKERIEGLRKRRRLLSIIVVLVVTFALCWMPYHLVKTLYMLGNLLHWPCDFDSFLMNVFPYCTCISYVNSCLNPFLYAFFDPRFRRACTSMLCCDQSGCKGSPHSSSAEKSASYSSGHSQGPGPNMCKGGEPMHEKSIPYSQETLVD

Binder | EC50 Human APJ Receptor (human APJ receptor) [nM] | EC50 Rat APJ Receptor (rat APJ receptor) [nM]
Tridecanoyl-[γGlu][AEEA][AEEA][dR]Q[hArg]P[dR][NMeL]SHKG[Oic][Phe(4-I)]P[Oic]-OH (SMILES CCCCCCCCCCCCC(=O)N[C@@H](CCC(=O)NCCOCCOCC(=O)NCCOCCOCC(=O)N[C@H](CCCNC(=N)N)C(=O)N[C@@H](CCC(N)=O)C(=O)N[C@@H](CCCCNC(=N)N)C(=O)N1CCC[C@H]1C(=O)N[C@H](CCCNC(=N)N)C(=O)N(C)[C@@H](CC(C)C)C(=O)N[C@@H](CO)C(=O)N[C@@H](Cc1c[nH]cn1)C(=O)N[C@@H](CCCCN)C(=O)NCC(=O)N1[C@H](C(=O)N[C@@H](Cc2ccc(I)cc2)C(=O)N2CCC[C@H]2C(=O)N2[C@H](C(=O)O)C[C@@H]3CCCC[C@@H]32)C[C@@H]2CCCC[C@@H]21)C(=O)O) [apelin polypeptide SEQ ID NO: 153] | 3.75 | 72
Tridecanoyl-[γGlu][AEEA][AEEA][dR]Q[hArg]P[dR][NMeL]SHKG[Oic][Phe(4-I)]P[dPhe(4-Cl)]-OH (SMILES CCCCCCCCCCCCC(=O)N[C@@H](CCC(=O)NCCOCCOCC(=O)NCCOCCOCC(=O)N[C@H](CCCNC(=N)N)C(=O)N[C@@H](CCC(N)=O)C(=O)N[C@@H](CCCCNC(=N)N)C(=O)N1CCC[C@H]1C(=O)N[C@H](CCCNC(=N)N)C(=O)N(C)[C@@H](CC(C)C)C(=O)N[C@@H](CO)C(=O)N[C@@H](Cc1c[nH]cn1)C(=O)N[C@@H](CCCCN)C(=O)NCC(=O)N1[C@H](C(=O)N[C@@H](Cc2ccc(I)cc2)C(=O)N2CCC[C@H]2C(=O)N[C@H](Cc2ccc(Cl)cc2)C(=O)O)C[C@@H]2CCCC[C@@H]21)C(=O)O) [apelin polypeptide SEQ ID NO: 154] | 4.54 | 40.5
Tridecanoyl-[γGlu][AEEA][AEEA][dQ][hArg]P[NMeR][Cha]SHKG[Oic][Nle]P[dF]-OH (SMILES CCCCCCCCCCCCC(=O)N[C@@H](CCC(=O)NCCOCCOCC(=O)NCCOCCOCC(=O)N[C@H](CCC(N)=O)C(=O)N[C@@H](CCCCNC(=N)N)C(=O)N1CCC[C@H]1C(=O)N(C)[C@@H](CCCNC(=N)N)C(=O)N[C@@H](CC1CCCCC1)C(=O)N[C@@H](CO)C(=O)N[C@@H](Cc1c[nH]cn1)C(=O)N[C@@H](CCCCN)C(=O)NCC(=O)N1[C@H](C(=O)N[C@@H](CCCC)C(=O)N2CCC[C@H]2C(=O)N[C@H](Cc2ccccc2)C(=O)O)C[C@@H]2CCCC[C@@H]21)C(=O)O) [apelin polypeptide SEQ ID NO: 126] | 11 | 56.2
Tridecanoyl-[γGlu][AEEA][AEEA][hArg][dQ][hArg]P[NMeR][Cha]SHKG[Oic][Nle]P[dF]-OH (SMILES CCCCCCCCCCCCC(=O)N[C@@H](CCC(=O)NCCOCCOCC(=O)NCCOCCOCC(=O)N[C@@H](CCCCNC(=N)N)C(=O)N[C@H](CCC(N)=O)C(=O)N[C@@H](CCCCNC(=N)N)C(=O)N1CCC[C@H]1C(=O)N(C)[C@@H](CCCNC(=N)N)C(=O)N[C@@H](CC1CCCCC1)C(=O)N[C@@H](CO)C(=O)N[C@@H](Cc1c[nH]cn1)C(=O)N[C@@H](CCCCN)C(=O)NCC(=O)N1[C@H](C(=O)N[C@@H](CCCC)C(=O)N2CCC[C@H]2C(=O)N[C@H](Cc2ccccc2)C(=O)O)C[C@@H]2CCCC[C@@H]21)C(=O)O) [apelin polypeptide SEQ ID NO: 149] | 3.19 | 9.99

From patent US10941182 (Amgen, dated 2021)
